In patent US20220396617A1:

Legend:
[1] = biological target: human TIGIT (ECD)-his (human) (UniProt Q495A1); assay: SPR (BIAcore 8K), human TIGIT (ECD)-his on CM5 chip, antibody injected
[2] = biological target: human TIGIT (ECD)-his (human) (UniProt Q495A1); assay: ELISA, coated human TIGIT (ECD)-his (table head says FACS)
TIGIT (ECD)-hFc (human) [3] = biological target: TIGIT (ECD)-hFc (human) (UniProt Q495A1); assay: FACS blocking assay (protocol of Example 7): serially diluted antibody pre-incubated with TIGIT (ECD)-hFc, then binding of TIGIT (ECD)-hFc to A549/human PVR cells measured; blocked ligand: human PVR [A]
TIGIT (ECD)-hFc (human) [4] = biological target: TIGIT (ECD)-hFc (human) (UniProt Q495A1); assay: FACS blocking assay: antibody preincubated with TIGIT (ECD)-hFc, binding to A549/human PVR cells
TIGIT (ECD)-hFc (human) [5] = biological target: TIGIT (ECD)-hFc (human) (UniProt Q495A1); assay: FACS blocking assay (protocol of Example 7): serially diluted antibody pre-incubated with TIGIT (ECD)-hFc, then binding of TIGIT (ECD)-hFc to A549/human PVR cells measured; blocked ligand: human PVR
TIGIT (ECD)-hFc (human) [6] = biological target: TIGIT (ECD)-hFc (human) (UniProt Q495A1); assay: FACS blocking assay (protocol of Example 7): serially diluted antibody pre-incubated with TIGIT (ECD)-hFc, then binding of TIGIT (ECD)-hFc to A549/human PVR cells measured; blocked ligand: human PVR [B]

Sequence of TIGIT (ECD)-hFc (human) (Q495A1 22-141): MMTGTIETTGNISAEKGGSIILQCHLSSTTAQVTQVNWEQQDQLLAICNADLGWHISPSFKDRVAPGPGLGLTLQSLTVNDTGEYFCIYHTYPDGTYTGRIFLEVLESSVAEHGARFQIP
Sequence of human TIGIT (ECD)-his (human) (Q495A1 22-141): as above

Kd [1]: 1.49 pM | EC50 [2]: 0.16 nM | IC50 (read off the curve) (TIGIT (ECD)-hFc (human) [3]): 4000 ng/mL | EC50 (TIGIT (ECD)-hFc (human) [4]): 42 nM | IC50 (read off the curve) (TIGIT (ECD)-hFc (human) [5]): 3000 ng/mL | IC50 (read off the curve) (TIGIT (ECD)-hFc (human) [6]): 5000 ng/mL
Substance: Tiragolumab (antibody)
